Reference: the supplement of paper PMC10567573

B1: ADAMTS4 (parent)
chain: HVDPEEPWSPCSARFITDFLDNGY
B2: NFE2L1 (parent)
chain: TLDGYGIHPKSIDLDNYFTARRLL

Variants of: B1
Test: protein stability index of a GFP-peptide fusion (GPS, HEK-293T) (PSI 1-6); higher = more stable
Conditions: c terminus: a fixed tail appended
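Also: lentivirally expressed fusions sorted by FACS into six bins by GFP to DsRed ratio, PSI derived from sequencing read proportions per bin multiplied by bin number.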

Protein stability index, by site and new letter:
H1: L 1.78, K 1.91, C 2.17, A 2.09, M 1.95, Q 2.31, I 2.1, W 1.78, E 2.76, S 2.54, R 2.26, T 2.77, N 2.37, D 2.4, V 2.04, G 2.81, P 2.57, F 3.17

Variants of: B2
Test: as above
Conditions: c terminus: a fixed tail appended

Protein stability index, by site and new letter:
R22: N 1.85, C 2.16, I 3.54, E 1.88, P 1.97, T 2.25, Y 1.89, F 1.6, W 2.21, Q 1.89
G4: C 1.43, S 2.13, M 2.09, P 1.63, E 1.47, W 1.91, N 2.03, L 1.27, H 1.62, Y 1.5, K 1.53, Q 1.75
R21: Q 1.71, G 2.4, F 1.77, E 2.12, M 1.86, V 2.72, L 1.9, N 1.8, H 2.8, D 2.67, C 1.7, P 2.05
D15: F 2.6, V 1.72, L 1.57, P 2.06, G 2.3, M 1.84, E 1.96, Q 1.84, K 1.72, N 2.2, I 2.47, A 1.9, Y 1.46, W 2.21
D13: A 1.84, M 1.64, C 2, H 1.64, P 2.26, L 1.73, W 2.21, F 1.48, K 1.72, Q 2.01, R 1.91, S 1.83, Y 1.46, T 2.11
S11: Y 1.67, V 2.49, H 1.89, C 1.98, M 1.57, P 2.04, R 1.97, N 2.19, I 1.4, A 1.49, T 1.97, W 1.67, E 2.28, D 2.38, Q 1.89
L2: K 2.19, F 1.97, S 1.7, G 1.86, W 2.37, Y 1.74, M 2.04, D 2.15, V 1.74, A 1.58, T 2.23, Q 1.66, C 2.75, R 1.92, H 1.92, I 2.61, E 2.05
H8: K 2.07, R 1.55, D 2.02, Q 1.79, E 2.42, N 1.78, F 1.95, V 2.28, C 1.87, G 1.75, Y 1.72, L 1.67, T 2.05
G6: Q 1.94, V 2.25, D 1.54, A 2.26, F 2.69, C 1.48, I 1.58, Y 1.71, M 1.83, N 2.21, P 1.76, T 1.83, L 1.59
I12: M 1.75, G 2.43, Y 1.99, K 1.85, S 1.87, P 3.06, W 2.05, L 1.66
L23: P 2.54, C 2.41, H 2.18, Y 2.33, E 2.6, V 1.66, F 1.93, S 3.05, G 2.42, R 3.19, I 1.64, W 1.82, K 3.26
P9: M 2.05, A 1.68, W 2.16, Q 2.08, G 1.91, V 1.5, I 2.39, E 1.97, D 1.88, S 1.71, C 1.62, L 2.7, Y 1.68, T 1.95
I7: H 2.85, N 2.1, L 1.7, V 1.68, S 1.91, M 1.75, T 1.78, D 2.4, Q 2.35, A 2.01, R 2.04, P 2.12, W 1.67
K10: C 2.54, Y 1.39, M 1.88, I 1.94, G 1.93, A 1.79, L 2.01, F 1.87, N 2.44, P 1.73
T1: K 1.52, M 1.77, P 2.37, F 1.3, V 1.55, D 1.92, N 1.61, Y 2.32, H 1.69, G 1.46, I 1.36, A 2.49, R 1.66, C 1.92
N16: S 2.6, R 1.82, D 2.03, P 1.98, A 1.72, F 2.63, G 1.21, H 1.9, W 1.96, V 2.24, Y 2.19, K 1.39, I 3.1, E 2.19, T 1.76, Q 1.8
Y17: K 2.57, W 1.5, H 2.56, I 2.25, L 2.06, G 2.32, E 3.09, M 2.36, Q 2.92, C 1.71, A 1.88, D 2.64, S 2.55, R 2.58, F 3.17
F18: G 2.67, S 2.16, I 1.92, K 2.88, T 2.25, P 2.89, W 1.7, R 2.31, V 3.05, N 3, A 2.93, D 3.26, C 2.03, L 1.89, H 2.34, Q 2.69, E 2.71
L24: H 2.14, F 2.42, Q 1.85, Y 1.72, D 2.69, R 3.05, K 2.9, N 2.48, S 2.48, V 2.08
A20: Y 1.92, W 2.04, V 1.35, R 2.17, M 1.96, D 2.76, H 1.66, N 1.49, K 2.34, E 1.87, F 1.8, Q 2.23, S 2.03, I 1.77
Y5: G 2.43, I 2.21, K 1.85, Q 1.48, W 1.97, E 2.21, C 2.01, H 2.12, N 2.25, S 2.05, F 1.89, A 2.67, T 2.13
D3: A 2.61, L 2.58, H 1.25, Q 1.79, T 1.61, P 1.62, M 2.07, C 1.77, I 2.06, G 1.65, W 1.47, R 2.33, F 3.12, V 1.62, S 1.71
L14: Q 2.21, N 2.17, G 2.31, C 2.39, V 1.71, T 2.55, A 2.2, P 2.31, Y 2.25, I 2.12
T19: F 1.71, Y 1.8, M 1.67, G 1.89, E 2.09, D 2.07, L 1.26, V 1.66, W 2.08, S 1.9, K 2.46, A 2.01, I 2.03, R 2.81
